Test results reported in article doi:10.1101/2021.09.21.461191v4.

Substrate: OC[C@@H](O)[C@H](O)[C@@H](O)CO
Assay: cells, lysate or membranes
Settings: proton symport, membrane voltage -40 mV, external pH 5.5

B1: BvPMT5a (Beta vulgaris subsp. vulgaris) (protein)
chain: MSEGTNKAMSDPPPTTASKVIADFDPLKKPPKRNKFAFACATLASMTSVLLGYDIGVMSGAIIYLKEDWHISDTQIGVLVGILNIYCLFGSFAAGRTSDWIGRRYTIVLAGAIFFVGALLMGFATNYAFLMVGRFVTGIGVGYALMIAPVYTAEVSPASSRGFLTSFPEVFINAGILLGYISNLAFSSLPTHLSWRFMLGIGAIPSIFLAIGVLAMPESPRWLVMQGRLGDAKKVLNRISDSPEEAQLRLSEIKQTAGIPAECDEDIYKVEKTKIKSGNAVWKELFFNPTPAVRRAVIAGIGIHFFQQASGIDAVVLYSPRIFQSAGITNARKQLLATVAVGVVKTLFILVATFQLDKYGRRPLLLTSVGGMIIAILTLAMSLTVIDHSHHKITWAIALCITMVCAVVASFSIGLGPITWVYSSEVFPLRLRAQGTSMGVAVNRVVSGVISIFFLPLSHKITTGGAFFLFGGIAIIAWFFFLTFLPETRGRTLENMHELFEDFRWRESFPGNKSNNDENSTRKQSNGNDKSQVQLGETTTSTTVTNDNH
  Km: 2500 µM
